# Test: Preliminary stability of PDGF preformulations in the gel vehicle (SEC and rpHPLC)
# Assay type: physicochemical
# Conditions: 5° C. for 1 day, Bulk PDGF as reference
# Experimental: All lyophilized protein formulations as listed in Tables 8 and 9, were mixed into a gel vehicle with the composition of PLGA RG502/Benzyl Benzoate (BB)/benzyl alcohol (BA) of 40/45/15 with the loading of the protein formulation about 10 wt %. After being stored at 5° C. for 1 day, the mixtures were extracted with an organic solvent mixture of methylene chloride and acetone (ratio of 50/50) as described in the example 15 above. The purity of the PDGF-BB was analyzed by both reverse phase HPLC (rpHPLC) and size exclusion chromatography (SEC). In general, no distinguishable degradation of the PDGF-BB was found in the PDGF-BB formulation incorporated with the excipients as described in the Example 18 and mixed with the gel vehicle of the present invention.
substance,measurement,setting,value
"Bulk PDGF: PDGF-BB bulk solution, i.e., aqueous solution of PDGF in acetate buffer",% PDGF dimmer by SEC,Table 8 (succinate),0.73%
same,% other peaks by rp-HPLC,Table 8 (succinate),0.0%
same,% peak at RRT = 1.10 by rp-HPLC,Table 8 (succinate),1.2%
same,% PDGF dimer by SEC,Table 9 (histidine),0.73%
same,% other peaks by rp-HPLC,Table 9 (histidine),0.0%
same,% peak at RRT = 1.10 by rp-HPLC,Table 9 (histidine),1.2%
